B1: HDV Ribozyme (parent)
chain: GGCCGGCAUGGUCCCAGCCUCCUCGCUGGCGCCGGCUGGGCAACAUUCCGAGGGGACCGUCCCCUCGGUAAUGGCGAAUGGGACCCA

Experimental findings from the RNAGym collection of RNA variant scans (doi:10.7554/elife.80360) are described below.

Variants of B1 are the subject of the data set. The data set is described as follows: self-cleavage, relative activity (ratio to wild type); higher = more cleavage; co-transcriptional.
Consider C30U U46C, for which the self-cleavage amounted to 0.0723.

On to C14U C33U, for which the self-cleavage is 0.975. With C22U U60A the figure was 0.623; with C18G C62G, 0. As to C15A C86G, the self-cleavage was 0.748. Regarding C41A G76A, the self-cleavage is 0.845.

On to C18U U27C, for which the self-cleavage was determined as 0.268.

For A45G C48A, the self-cleavage came out at 1.27. G38C U47C: the self-cleavage is 0.161. On to G1U G40U, for which the self-cleavage was found to be 0.225.

Regarding G73C G74A, the self-cleavage came to 0.422.

In the case of C58G C85G, the self-cleavage was determined as 0.95. With U12G U79G, the self-cleavage was 0.639. As for G53C A83G, the self-cleavage came to 0.815.

As for G2A C48G, the self-cleavage worked out at 0.157. With U60A G67C the figure was 1.03. Consider G29C G38C, for which the self-cleavage turned out to be 0.0489. For C21U C44A the value was 0.437.

Regarding U46G G81U, the self-cleavage came out at 0.249. For C18A A51C the value was 0.0755. For C61A A71U the value was 0.784. Regarding U27G C64A, the self-cleavage was 0.705. For G6U C58A the value was 0.672; for U20A G52U, 0.0462. For C41A G82C the value was 0.289; for G52U C58A, 0.888. With C21G G73C, the self-cleavage amounted to 0.17. For C41A G74U the value was 0.513; for U37G U47G, 0; for C22U U72G, 0.17. With C22U U72A the figure was 0.219. Consider C18A C57U, for which the self-cleavage was determined as 0.086. With G28A A56U the figure was 0.111.

Consider C14A C66G, for which the self-cleavage worked out at 0.57. Take G17U C57A: the self-cleavage was 0.689. Consider A45C A71C, for which the self-cleavage came to 0.831.

On to G31C U72A, for which the self-cleavage turned out to be 0.166. For C64A C86A the value was 0.942; for C22A G67U, 0.259. With C19A G53A the figure was 0.149. For A8C U20G, the self-cleavage turned out to be 0.175. U37A C61U: the self-cleavage came out at 0.277.

On to A45U C61A, for which the self-cleavage was determined as 0.928. For U23G A43U the value was 0.219. In the case of C41G C58A, the self-cleavage came to 0.895. For U27G A56C the value was 0.712. For G53A C85A, the self-cleavage is 0.933. With C7G A70C the figure was 0.237. For A51C C57G the value was 1.14. As to G68U G80U, the self-cleavage was 0.257. With C3G C15A the figure was 0.293; with G10U C33A, 0.113.

Regarding G11C G53C, the self-cleavage stood at 0.291.

Turning to G50C G55C, the self-cleavage is 1.14. With G10U C41A the figure was 0.892. For G55U A56C the value was 0.944; for C3G C62U, 0.822; for G28U, 0.108. For G28A the value was 0.0977; for G35C G74C, 0.17; for U9C G81C, 0.598.

Take G82C C86U: the self-cleavage was determined as 0.285. With C13U G35U the figure was 0.163; with C18A C36A, 0.0361; with U20G A83C, 0.158. For C15A U69A the value was 0.506; for U47C G53U, 0.966. On to C4U C44A, for which the self-cleavage worked out at 0.578. On to U37A A70G, for which the self-cleavage was found to be 0.214.

On to C19U C44U, for which the self-cleavage is 0.0852.

Turning to C26G U72G, the self-cleavage was found to be 0.755.

For the variant G34U U72G, the self-cleavage stood at 0.297. For U12C G73U the value was 0.0811; for G31A G35C, 0. For C15G C32U the value was 0.437; for C7A A77U, 0.0875; for C22G G28U, 0.0739. With C7U C58U the figure was 1.19; with G35U G74C, 0.272. Regarding G25U C58G, the self-cleavage stood at 0.18. G6C: the self-cleavage stood at 0.294. With A56G U65A the figure was 0.867. Take A51U U69C: the self-cleavage is 1.26. On to C41G G68U, for which the self-cleavage was 0.596.

As for G39A C61A, the self-cleavage stood at 0.546. In the case of G28U A45C, the self-cleavage was 0.148. With U27C A56U the figure was 0.674; with U23C C75G, 0.148.

As for G17A G59C, the self-cleavage was found to be 0.66. Regarding C15U U72G, the self-cleavage stood at 0.665.

With C26U G68A, the self-cleavage was 1.02.

On to G55C C85A, for which the self-cleavage came out at 0.752. With C85U A87U, the self-cleavage turned out to be 0.956.

Turning to C14G G31C, the self-cleavage was found to be 0.145. For G31C G73C, the self-cleavage came out at 0.155. For U23C C57A the value was 0.849; for C41U U79C, 0.332; for C22A A56G, 0.415. With C7A C64G the figure was 0.429; with A16C U72A, 0.437; with C36G C61G, 0.0386. For C49U G82U the value was 0.47; for U12A G68U, 0.312. As to G40U G80A, the self-cleavage was found to be 0.197. With G11U G67A the figure was 0.0875; with C33U A87U, 0.885; with C33A C49G, 0.166. For A45G G81U the value was 0.208. For A56G A70G the value was 1.14. As for U20C A78U, the self-cleavage turned out to be 0.111.

As for U47C C48G, the self-cleavage came out at 0.804. Consider G5U C30A, for which the self-cleavage worked out at 0.0462. With G17C C57G the figure was 0.516; with C33G A43U, 0.175; with C32U G38C, 0.233.

Consider A43G C84G, for which the self-cleavage amounted to 0.201.

Take C3U U47A: the self-cleavage is 0.969. Turning to C24A G53U, the self-cleavage worked out at 0.858. For C13A G52U the value was 0.225; for G17C G67U, 0.358; for C30G A77U, 0.0665. For C75G U79C the value was 0.113. As to G59A G80U, the self-cleavage was 0.179. With G5U C22U the figure was 0.158; with G34U U65A, 0.0923; with U37A C41G, 0.0723. In the case of C26G U37G, the self-cleavage came out at 0.111.

Consider C13U G52A, for which the self-cleavage was found to be 0.682. Consider C3U G31U, for which the self-cleavage is 0.173. For G53C C85U the value was 0.808. For G2C U69G the value was 0.157; for G6C U79A, 0.119. Take G1A C48A: the self-cleavage was found to be 0. With A16U G53C the figure was 1.01; with U65G A70G, 1.05; with C22A A87G, 0.33. With C30G G38A, the self-cleavage was found to be 0.14.

On to C4A A45C, for which the self-cleavage stood at 0.0519.

Consider G5C U72C, for which the self-cleavage is 0.123. With C3A A42C the figure was 0.162; with C3A C4U, 0.0341; with A8U C13G, 0. With G5C A56C the figure was 0; with G1A G59A, 0.0573; with C21U A77G, 0.232.

As for U46C G52C, the self-cleavage came to 0.72. For G38A U79C the value was 0.161; for G31A C63U, 0.606; for G5C A83U, 0. For A16G G67U the value was 0.831.

Turning to C86A A87U, the self-cleavage was found to be 0.9.

C19G G31A: the self-cleavage was 0.0554. As to C3G G29U, the self-cleavage turned out to be 0.0656. Consider G28C G80C, for which the self-cleavage was determined as 0.166. In the case of C36U C41A, the self-cleavage was found to be 0.683.

As for G6U G50A, the self-cleavage was 0.372. Regarding U65G C84A, the self-cleavage was 1.04. With G39C G76U the figure was 0.831; with A78C G80C, 0.0514; with C58A C61G, 1.03. Turning to C4U C30G, the self-cleavage amounted to 0. With G17U G39A the figure was 0.128; with C15U U69G, 0.858; with U9G C36A, 0.401. With U27G C48U the figure was 0.942.

For the variant C22A C41G, the self-cleavage came out at 0.175. Take U20A C41G: the self-cleavage was determined as 0.135.
